Data reported in patent US20250277031A1 (BEIJING HANMI PHARMACEUTICAL, published 2025).
Numbering of substitutions follows the chain as printed. Each block holds one binder with its values, some of them ahead of it.

What was measured:
recombinant human CD47 [1] = molecular target: T1, recombinant human CD47 (human, UniProt Q08722 19-139); assay: ELISA, plate coated with 1 µg/mL recombinant human CD47, OD450
T1 construct: also called antigen CD47
Method: A 96-well high-adsorption ELISA plate was coated with 1 μg/mL of the recombinant human CD47 (Sino Biological Inc.) at 100 μL per well using carbonate buffer solution, pH=9.6 at 4° C. overnight. The plate was washed 5 times with PBST, and then blocked using PBST with 1% BSA, 300 μL/well, and incubated at 25° C. for 1 hour, and then washed 5 times with PBST. The anti-human CD47 antibody samples and the control CC-90002 (a patent sequence from WO2016109415) were added, 100 μL/well, incubated at 25° C. for 1 hour, and then washed 5 times with PBST. The horseradish peroxidase-labeled anti-mouse IgG antibody (Abcam, catalog number Ab7068) diluted 1:10000 in PBST with 1% BSA was then added, 100 μL per well, and incubated at 25° C. for 1 hour. The plate was washed 5 times with PBST. The colorimetric substrate TMB was added, 100 μL/well, and developed at room temperature for 10 minutes. 1M H₂SO₄ was added, 100 μL/well, to stop the development. The absorbance at 450 nm was read on a microplate reader.

[2] = molecular target: T2, recombinant human CD47-Fc protein (ACROBiosystems, catalog number CD7-H52A5) (human, UniProt Q08722 19-139); assay: blocking ELISA: plate coated with human CD47-Fc, 2 nM biotin-labelled SIRPα as the blocked ligand, falling OD450 curve; the sheet labels the half-maximal value EC50
T2 construct: bought; not shown: Fc part of a bought fusion protein, not described
Method: A 96-well high-adsorption ELISA plate was coated with 1 μg/mL of the recombinant human CD47-Fc (ACROBiosystems) at 100 μL per well using carbonate buffer solution, pH=9.6 at 4° C. overnight. The plate was washed 5 times with PBST, and then blocked using PBST with 1% BSA, 300 μL/well, and incubated at 25° C. for 1 hour, and then washed 5 times with PBST. The anti-human CD47 antibody samples were added, 50 μL/well, the biotin-labelled SIRPα (ACROBiosystems) was added at a concentration of 4 nM (a final concentration of 2 nM), 50 μL/well, incubated at 25° C. for 90 minutes, and then washed 5 times with PBST. The Streptavidin-HRP (BD Pharmingen, catalog number 554066) diluted 1:1000 in PBST with 1% BSA was then added, 100 μL per well, and incubated at 25° C. for 1 hour. The plate was washed 5 times with PBST. The colorimetric substrate TMB was added, 100 μL/well, and developed at room temperature for 10 minutes. 1M H₂SO₄ was added, 100 μL/well, to stop the development. The absorbance at 450 nm was read on a microplate reader.

[3] = molecular target: T3, recombinant human CD86 (ACROBiosystems) (human, UniProt P42081 26-247, limits assumed); assay: ELISA, coated recombinant protein
T3 construct: counted here as a B7 family member
T3 sequence (looked up): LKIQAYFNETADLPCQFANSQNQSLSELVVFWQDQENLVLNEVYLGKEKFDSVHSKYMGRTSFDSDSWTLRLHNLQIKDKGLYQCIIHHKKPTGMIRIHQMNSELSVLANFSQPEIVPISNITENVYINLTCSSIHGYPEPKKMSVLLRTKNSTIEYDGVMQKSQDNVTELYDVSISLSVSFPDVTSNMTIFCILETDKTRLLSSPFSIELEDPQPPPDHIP
Method: (§1) Binding specificity of the chimeric anti-human CD47 mAbs was determined by ELISA. A 96-well high-adsorption ELISA plate was coated with 1 μg/mL of the recombinant human PD1, CD28, CTLA4, ICOS, BTLA, CD47, PD-L2, CD80, CD86, B7-H2, CD47, SIRPα and SIRPγ (all from ACROBiosystems), at 100 μL per well using carbonate buffer solution, pH=9.6 at 4° C. overnight. The plate was washed 5 times with PBST, and then blocked using PBST with 1% BSA, 300 μL/well, and incubated at 25° C. for 1 hour, and then washed 5 times with PBST. The chimeric anti-human CD47 mAb samples serially diluted in PBST with 1% BSA and the control CC-90002 and the isotype control were added, 100 μL/well, incubated at 25° C. for 1 hour, and then washed 5 times with PBST. The horseradish peroxidase-labeled anti-human IgG antibody (Chemicon, catalog number AP309P) diluted 1:10000 in PBST with 1% BSA was then added, 100 μL per well, and incubated at 25° C. for 1 hour. The plate was washed 5 times with PBST. The colorimetric substrate TMB was added, 100 μL/well, and developed at room temperature for 10 minutes. 1M H₂SO₄ was added, 100 μL/well, to stop the development. The absorbance at 450 nm was read on a microplate reader.

[4] = molecular target: T4, recombinant human B7-H2 (ACROBiosystems) (human, UniProt O75144 19-258, limits assumed); assay: ELISA, coated recombinant protein
T4 construct: counted here as a B7 family member
T4 sequence (looked up): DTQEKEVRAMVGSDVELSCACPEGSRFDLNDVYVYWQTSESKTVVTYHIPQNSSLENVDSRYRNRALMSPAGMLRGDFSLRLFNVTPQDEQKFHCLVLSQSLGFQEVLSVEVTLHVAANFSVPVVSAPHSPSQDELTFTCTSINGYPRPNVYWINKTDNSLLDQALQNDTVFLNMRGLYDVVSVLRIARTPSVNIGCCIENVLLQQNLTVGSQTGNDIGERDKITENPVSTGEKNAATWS
Method: as §1

[5] = molecular target: recombinant human SIRPγ (ACROBiosystems) (human, UniProt Q9P1W8 29-360, limits assumed); assay: ELISA, coated recombinant protein
Method: as §1

recombinant human CD47 [6] = molecular target: T1, recombinant human CD47; assay: SPR, Biacore X100, antibody captured on Protein A chip, CD47 as analyte
Text: Biacore X100 instrument (purchased from GE) was used to detect the kinetic constant of the chimeric anti-human CD47 monoclonal antibodies binding to its antigen human CD47. This instrument utilizes optical surface plasmon resonance technology to detect the association and dissociation between the molecules coated on the biochip and the molecules to be tested. The main reagent used is Protein A chip (GE Healthcare, 29-1275-57). The experimental procedure is briefly described as follows: the chimeric anti-human CD47 antibodies were diluted in running buffer (1×HBS-EP+10 mM HEPES, 150 mM NaCl, 3 mM EDTA, 0.05% surfactant P20, pH7.4). During the capture-binding phase, the antibodies at a concentration of 2 μg/mL were injected for 60 seconds at a speed of 10 μL/min. During the binding phase, the antigen CD47 was diluted into multiple concentrations with running buffer, injected for 120 seconds at a speed of 30 μL/min respectively. During the dissociation phase, running buffer was injected for 600 seconds at a speed of 10 μL/min. The regeneration condition is 10 mM glycinate solution, pH1.5. Association kinetic constants and dissociation kinetic constants were analyzed and calculated by Biacore X100 evaluation software. The association kinetic constants, dissociation kinetic constants and dissociation equilibrium constants of the chimeric anti-human CD47 antibodies were shown in Table 7.

T1 sequence (Q08722 19-139 limits assumed): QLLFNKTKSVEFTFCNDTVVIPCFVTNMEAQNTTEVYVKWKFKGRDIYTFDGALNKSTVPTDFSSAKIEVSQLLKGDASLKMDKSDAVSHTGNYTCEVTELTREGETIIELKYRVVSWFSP
Sequence of recombinant human SIRPγ (ACROBiosystems) (Q9P1W8 29-360 limits assumed): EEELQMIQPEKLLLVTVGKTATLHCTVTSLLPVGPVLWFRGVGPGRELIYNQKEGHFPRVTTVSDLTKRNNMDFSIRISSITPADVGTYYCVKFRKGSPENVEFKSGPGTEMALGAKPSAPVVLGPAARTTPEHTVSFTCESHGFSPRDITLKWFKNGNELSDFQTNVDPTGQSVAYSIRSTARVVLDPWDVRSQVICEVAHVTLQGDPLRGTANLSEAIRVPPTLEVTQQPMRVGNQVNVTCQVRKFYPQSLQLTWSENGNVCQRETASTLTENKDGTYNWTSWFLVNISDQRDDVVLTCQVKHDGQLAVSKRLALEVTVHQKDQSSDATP
T2 sequence (Q08722 19-139 limits assumed): as the sequence (Q08722 19-139 limits assumed) above

EC50 (recombinant human CD47 [1]): 0.026 nM
IC50 [2]: 1.75 nM
binding result [3]: no binding
binding result [4]: no binding
binding result [5]: no binding
B1: chimeric anti-human CD47 monoclonal antibody mAb-18-5 N297A (antibody, human IgG1, kappa, N297A)
heavy: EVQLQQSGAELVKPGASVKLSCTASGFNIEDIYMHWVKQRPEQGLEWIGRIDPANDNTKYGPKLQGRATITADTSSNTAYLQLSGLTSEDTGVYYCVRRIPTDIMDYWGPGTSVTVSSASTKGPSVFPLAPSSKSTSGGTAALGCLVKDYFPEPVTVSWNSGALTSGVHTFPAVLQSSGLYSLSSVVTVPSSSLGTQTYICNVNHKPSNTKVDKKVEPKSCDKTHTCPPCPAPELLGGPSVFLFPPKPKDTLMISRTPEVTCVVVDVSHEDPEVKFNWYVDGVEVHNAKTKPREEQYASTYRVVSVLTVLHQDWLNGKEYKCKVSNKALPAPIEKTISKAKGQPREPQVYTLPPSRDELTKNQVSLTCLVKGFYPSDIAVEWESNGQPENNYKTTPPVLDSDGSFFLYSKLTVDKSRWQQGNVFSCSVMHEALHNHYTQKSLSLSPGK
light: DIVMTQSQKFMSTSVGDRVSITCKASQNVRTSIAWYQQKSGQSPKTLIYLASNRHTGVPDRFTGSGSGTDFTLTISNVQSEDLADYFCLQHWNYPFTFGSGTKLEIKRTVAAPSVFIFPPSDEQLKSGTASVVCLLNNFYPREAKVQWKVDNALQSGNSQESVTEQDSKDSTYSLSSTLTLSKADYEKHKVYACEVTHQGLSSPVTKSFNRGEC
notes: no further substitution applied

EC50 (recombinant human CD47 [1]): 0.026 nM
Kd (recombinant human CD47 [6]): 1.02 nM
koff (recombinant human CD47 [6]): 0.00101 s⁻¹
kon (recombinant human CD47 [6]): 994000 M⁻¹ s⁻¹
IC50 [2]: 1.64 nM
binding result [3]: no binding
binding result [4]: no binding
binding result [5]: no binding
B2: chimeric anti-human CD47 monoclonal antibody mAb-18-10 (antibody, human IgG1, kappa)
heavy: not shown
light: B1 light with S40P
